# Measured values reported in patent US20150119340A1, “FUSION PEPTIDE AND USE THEREOF FOR CELL MEMBRANE PENETRATING” (Samsung Electronics Co., Ltd., priority 2013, published 2015).
# B1: Tat-p16M7: Comparison conjugate of TAT peptide and p16M7 (SEQ ID NO: 20-SEQ ID NO: 16) (protein)
# chain: RKKRRQRRRMEPAAGSSMEPSADKLATAAARGRVEEVRALLEAGADPNAPNSYGRRPIQVMMMGSARVAELLLKHGAEPNSADPATSTRPVHDAAREGFLDTLVVLHRAGARLDARDAWGRTPVDLAEELGHRDVARYLRAAAGGTRGSNHARIDAAEGPSDIPD
# modifications: Synthetic (TAT peptide); Synthetic (p16 variant (p16M7))
# Test system: MDA-MB-231 cells
# Experiment: Anticancer effect: cell viability (proliferation assay kit)
# Format: cell-based
# Settings: various concentrations, 72 hours after the conjugate treatment, FIG. 11
# Procedure: MDA-MB-231 cells were incubated at the amount of about 5,000-8,000 cells/well in 96 well plate for 24 hours, and then, treated with each of the obtained conjugates MTS-BAA-p16M7 and Tat-p16M7 at various concentrations (refer to FIG. 11). 24 hours or 72 hours after, the viability of the cells was measured by reading the fluorescent intensity of viable cells using titer® proliferation assay kit (Promega) according to manufacturer's manual. The results were normalized based on the results from a control (non-treated) group, and plotted (the value of the control group: “1”). The experiment was conducted in triplicate, and the error was treated using a standard deviation.
# The obtained results (results obtained at 72 hours after the conjugate treatment) are illustrated in FIG. 11.
molecule,measurement,value
B1,inhibitory effect on cancer cell proliferation (relative viability),nearly no inhibitory effect on cancer cell proliferation
